Experimental data as given in patent US20250320501A1, “PALMITOYLATION OF THE ALTERNATIVE AMINO TERMINUS OF THE BTK-C ISOFORM CONTROLS SUBCELLULAR DISTRIBUTION AND SIGNALING” (The Research Foundation for the State University of New York, priority 2022, published 2025).

Test system: BTK-A and BTK-C
Assay: Activating phosphorylation of BTK isoforms after stimulation with other ligands
Type: cell-based, human
Conditions: ligand stimulation (not shown)

B1: RANKL: ligand used for stimulation of BTK activation (protein, UniProt O14788 140-317, looked up)
Tumor necrosis factor ligand …: IRAEKAMVDGSWLDLAKRSKLEAQPFAHLTINATDIPSGSHKVSLSSWYHDRGWAKISNMTFSNGKLIVNQDGFYYLYANICFRHHETSGDLATEYLQLMVYVTKTSIKIPSSHTLMKGGSTKYWSGNSEFHFYSINVGGFFKLRSGEEISIEVSNPSLLDPDQDATYFGAFKVRDID
- increase of activating phosphorylation levels above unstimulated levels: only modestly
